These results are taken from US20230167182A1 (BIOSION, published 2023).

One experiment deals with T1, macaca IL6R-his protein (macaca mulatta).
T1 chain: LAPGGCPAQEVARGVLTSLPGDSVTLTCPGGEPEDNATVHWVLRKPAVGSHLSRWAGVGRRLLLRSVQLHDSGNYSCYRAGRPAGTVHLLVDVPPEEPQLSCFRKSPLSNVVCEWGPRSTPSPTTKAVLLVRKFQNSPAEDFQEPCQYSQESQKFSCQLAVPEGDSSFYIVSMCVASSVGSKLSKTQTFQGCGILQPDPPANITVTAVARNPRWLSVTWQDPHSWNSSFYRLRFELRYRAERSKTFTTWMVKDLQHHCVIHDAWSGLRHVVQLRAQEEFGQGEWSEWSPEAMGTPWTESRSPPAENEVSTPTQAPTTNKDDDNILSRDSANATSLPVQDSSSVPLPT
Description: SPR Biacore T200; mAb captured by anti-mouse IgG on CM5, antigen in flow, 1:1 fit. Here is the method: (§1) Un-reacted moieties on the biosensor surface were blocked with ethanolamine. […] Then, serially diluted recombinant human IL6R-his (in house made, amino acid sequence set forth in SEQ ID NO: 44) or macaca IL6R-his protein (in house made, amino acid sequence set forth in SEQ ID NO: 45), starting at 100 nM with a 2-fold serial dilution in HBS-EP⁺ buffer (provided by Biacore), was flowed onto the chip at a flow rate of 30 μL/min. The antigen-antibody association kinetics was followed for 2 minutes and the dissociation kinetics was followed for 10 minutes. The association and dissociation curves were fit to a 1:1 Langmuir binding model using BIAcore evaluation software.

For experiment [1], the target named is T2, recombinant human IL6R-his (human, UniProt P08887 20-365).
T2 construct: In house made; the entry includes the C-terminal His tag; also called human IL6R-his protein
T2 sequence: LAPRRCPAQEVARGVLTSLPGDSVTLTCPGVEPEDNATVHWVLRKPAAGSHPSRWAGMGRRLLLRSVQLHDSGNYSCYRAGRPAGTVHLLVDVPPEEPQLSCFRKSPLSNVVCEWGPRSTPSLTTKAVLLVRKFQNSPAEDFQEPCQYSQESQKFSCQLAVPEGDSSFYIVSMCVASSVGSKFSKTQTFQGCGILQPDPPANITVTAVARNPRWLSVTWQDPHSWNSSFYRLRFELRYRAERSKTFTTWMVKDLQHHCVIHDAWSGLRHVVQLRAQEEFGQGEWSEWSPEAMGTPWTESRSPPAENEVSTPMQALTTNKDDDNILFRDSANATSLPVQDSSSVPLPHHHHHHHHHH
Described as above. Here is the method: as §1

The target of experiment [2] is T3, human IL6R-Fc protein (human, biotin-labeled in the ELISAs (sites not given)).
T3 construct: In house made; also called biotin-labeled human IL6R-Fc protein
Description: capture ELISA: antibody captured on anti-IgG F(ab')2 coated plate, then biotin-labeled human IL6R-Fc, streptavidin-HRP. The method, then:
(§2) For the capture ELISA, 96-well micro plates were coated with 2 μg/ml AffiniPure Goat Anti-Mouse IgG, F(ab′)₂ fragment specific (Jackson ImmunoResearch Laboratories, Inc., Cat #115-005-072) in PBS, 100 μl/well, and incubated for 2 hours at 37° C. Plates were washed once with wash buffer (PBS+0.05% v/v Tween-20, PBST) and then blocked with 200 μl/well blocking buffer (5% w/v non-fatty milk in PBST) overnight at 4° C. […] Plates containing captured anti-IL6R antibodies were incubated with biotin-labeled human IL6R-Fc protein (prepared in house, SEQ ID NO: 43, 39.5 ng/ml in 2.5% w/v non-fatty milk in PBST, 100 μl/well) for 40 minutes at 37° C., washed 4 times, and incubated with streptavidin conjugated HRP (1:10000 dilution in PBST, Jackson ImmunoResearch Laboratories, Inc., Cat #016-030-084, 100 μl/well) for 40 minutes at 37° C. After a final wash, plates were incubated with 100 μl/well ELISA substrate TMB (InnoReagents, Cat #TMB-S-002). The reaction was stopped 3-10 minutes later at room temperature with 50 μl/well 1M H₂SO₄, and the absorbance of each well was read on a microplate reader using dual wavelength mode at 450 nm for TMB and 630 nm as the reference wavelength. Then the OD (450-630) values were plotted against antibody concentration. Data was analyzed using Graphpad Prism software and EC₅₀ values were reported.

The target of experiment [3] is T3, human IL6R-Fc protein. The experiment is described as above. Here is the method: as §2
For the capture ELISA, 96-well micro plates were coated with 2 μg/ml goat anti-human IgG (AffiniPure Goat Anti-Human IgG, F(ab′)₂ fragment specific, Jackson ImmunoResearch Laboratories, Inc., Cat #109-005-097) instead of goat anti-mouse IgG F(ab′)₂ fragment, 100 μl/well.
This is another data set of the same source.

Where two headings read alike, the source gives them in different places.

T3 sequence (chain, as listed by the source limits assumed): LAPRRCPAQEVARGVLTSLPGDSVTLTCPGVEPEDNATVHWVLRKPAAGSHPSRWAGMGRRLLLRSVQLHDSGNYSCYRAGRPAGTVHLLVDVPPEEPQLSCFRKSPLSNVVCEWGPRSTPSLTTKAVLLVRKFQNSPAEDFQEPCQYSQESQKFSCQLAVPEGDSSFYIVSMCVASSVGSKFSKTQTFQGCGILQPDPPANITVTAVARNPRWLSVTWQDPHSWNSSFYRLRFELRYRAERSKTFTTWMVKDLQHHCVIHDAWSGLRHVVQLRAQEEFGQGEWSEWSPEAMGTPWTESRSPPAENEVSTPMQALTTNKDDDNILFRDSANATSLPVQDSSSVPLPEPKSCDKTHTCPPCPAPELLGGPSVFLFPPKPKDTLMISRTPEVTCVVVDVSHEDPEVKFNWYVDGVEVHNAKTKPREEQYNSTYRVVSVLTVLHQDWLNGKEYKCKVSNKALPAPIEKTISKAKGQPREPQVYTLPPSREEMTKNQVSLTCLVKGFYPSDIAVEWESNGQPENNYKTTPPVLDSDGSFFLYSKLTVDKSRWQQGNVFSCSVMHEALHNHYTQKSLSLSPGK

B1: mouse anti-IL6R monoclonal antibody 1H7 (antibody, V domains shown)
VH: QVQLQQPGTELVKPGASVKLSCKASGYTFTNYWMHWVKQRPGQGLDWIGEINPTNGRTNYNENFKSKATLTVDKSSSTAYMQLSSLTSEDSAVYYCARLNTHYVFDSWGQGTTLTLSS
VL: EIVLTQSPTTLAASPGEKITFTCSVSSSISSNYLHWYQQKPGFSPKLLISRTSTLASGVPARFSGSGSGTSYSLTIGTMEAEDVATYYCQQGSGIPFTFGSGTKLELK
notes: Mouse hybridoma mAb
B1: in the experiment with macaca IL6R-his protein, binding was put at a Kd of 0.229 nM, the off-rate (koff) stood at 3.14e-05 s⁻¹ and the kon amounted to 137000 M⁻¹ s⁻¹. Moreover, in experiment [1], the Kd was determined as 0.308 nM, the off-rate (koff) came out at 4.73e-05 s⁻¹ and the kon amounted to 153000 M⁻¹ s⁻¹. Also, in the experiment with human IL6R-Fc protein [2], a half-maximal response (EC50) required 0.0436 nM. The molecule further returned an EC50 with human IL6R-Fc protein [3] of 0.164 nM.
